Measurements taken from patent publication US20240409614.

Columns and labels:
A1AT-M351V/L353A/M358V = biological target: T1, A1AT-M351V/L353A/M358V
T1 chain: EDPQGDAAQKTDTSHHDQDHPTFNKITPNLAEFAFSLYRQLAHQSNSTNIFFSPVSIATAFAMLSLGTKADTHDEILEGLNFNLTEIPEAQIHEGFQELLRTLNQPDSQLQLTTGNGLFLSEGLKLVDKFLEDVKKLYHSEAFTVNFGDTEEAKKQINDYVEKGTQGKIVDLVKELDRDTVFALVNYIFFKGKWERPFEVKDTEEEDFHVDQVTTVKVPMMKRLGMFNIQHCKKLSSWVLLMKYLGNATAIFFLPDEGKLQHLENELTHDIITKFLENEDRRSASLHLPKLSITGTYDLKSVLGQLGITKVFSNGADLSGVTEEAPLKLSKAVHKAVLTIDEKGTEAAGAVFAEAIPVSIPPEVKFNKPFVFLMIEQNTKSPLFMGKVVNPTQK

A1AT-M351V/L353S/M358V = biological target: T2, A1AT-M351V/L353S/M358V
T2 chain: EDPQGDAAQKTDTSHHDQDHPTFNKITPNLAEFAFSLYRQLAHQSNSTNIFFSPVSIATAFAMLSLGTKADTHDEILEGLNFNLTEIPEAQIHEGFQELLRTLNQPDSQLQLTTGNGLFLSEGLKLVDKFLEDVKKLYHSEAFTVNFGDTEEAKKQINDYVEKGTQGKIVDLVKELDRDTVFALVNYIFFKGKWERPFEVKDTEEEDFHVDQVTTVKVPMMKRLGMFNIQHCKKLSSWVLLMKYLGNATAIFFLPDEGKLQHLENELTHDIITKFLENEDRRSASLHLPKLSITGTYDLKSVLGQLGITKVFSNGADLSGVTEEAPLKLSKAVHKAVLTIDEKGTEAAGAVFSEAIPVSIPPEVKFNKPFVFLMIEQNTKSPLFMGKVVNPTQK

A1AT-M351V/L353T/M358V = biological target: T3, A1AT-M351V/L353T/M358V
T3 chain: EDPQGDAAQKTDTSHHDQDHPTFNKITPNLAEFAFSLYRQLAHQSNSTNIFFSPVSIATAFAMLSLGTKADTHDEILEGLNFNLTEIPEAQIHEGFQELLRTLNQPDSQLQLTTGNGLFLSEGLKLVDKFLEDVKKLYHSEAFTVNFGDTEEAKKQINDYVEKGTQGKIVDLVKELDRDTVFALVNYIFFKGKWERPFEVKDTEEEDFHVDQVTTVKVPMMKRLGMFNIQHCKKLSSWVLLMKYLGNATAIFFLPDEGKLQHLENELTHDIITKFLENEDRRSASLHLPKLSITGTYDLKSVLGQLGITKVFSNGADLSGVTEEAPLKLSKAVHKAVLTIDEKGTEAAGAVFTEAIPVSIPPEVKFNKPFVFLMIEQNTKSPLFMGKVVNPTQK

[1] = biological target: wildtype alpha-1-antitrypsin (A1AT)

B1: MMP-7 (ProSpec, cat #enz-271) (protein)
chain: YSLFPNSPKWTSKVVTYRIVSYTRDLPHITVDRLVSKALNMWGKEIPLHFRKVVWGTADIMIGFARGAHGDSYPFDGPGNTLAHAFAPGTGLGGDAHFDEDERWTDGSSLGINFLYAATHELGHSLGMGHSSDPNAVMYPTYGNGDPQNFKLSQDDIKGIQKLYGKRSNSRKK
With B1 the “proteolytic degradation by MMP-7 (SDS-PAGE, FIG. 4)” value (“proteolytic degradation” for short) (A1AT-L353A) was “A0025 showed as little degradation by MMP-7 as A0028 and A0031”, the “proteolytic degradation” value (A1AT-L353A/M358V) was “A0025 showed as little degradation by MMP-7 as A0028 and A0031” and the “proteolytic degradation” value (A1AT-M351V/L353A) was “A0025 showed as little degradation by MMP-7 as A0028 and A0031”. For the same protein, the cleaved (%) after MMP-7 treatment (SDS-PAGE) (A1AT-M351V/L353A/M358V) was 0%, the non-cleaved (%) after MMP-7 treatment (SDS-PAGE) (A1AT-M351V/L353A/M358V) was 100% and the cleaved (%) after MMP-7 treatment (SDS-PAGE) (A1AT-M351V/L353S/M358V) was 0%. For the same protein, the non-cleaved (%) after MMP-7 treatment (SDS-PAGE) (A1AT-M351V/L353S/M358V) was 100%, the cleaved (%) after MMP-7 treatment (SDS-PAGE) (A1AT-M351V/L353T/M358V) was 5% and the non-cleaved (%) after MMP-7 treatment (SDS-PAGE) (A1AT-M351V/L353T/M358V) was 95%. For the same protein, the cleaved (%) after MMP-7 treatment (SDS-PAGE) (A1AT-M351V/M358V) was 63%, the non-cleaved (%) after MMP-7 treatment (SDS-PAGE) (A1AT-M351V/M358V) was 37% and the cleaved (%) after MMP-7 treatment (SDS-PAGE) [1] was 96%. For the same protein, the non-cleaved (%) after MMP-7 treatment (SDS-PAGE) [1] was 4%.

B2: MMP-9 (ProSpec, cat #enz-438) (protein)
chain: APRQRQSTLVLFPGDLRTNLTDRQLAEEYLYRYGYTRVAEMRGESKSLGPALLLLQKQLSLPETGELDSATLKAMRTPRCGVPDLGRFQTFEGDLKWHHHNITYWIQNYSEDLPRAVIDDAFARAFALWSAVTPLTFTRVYSRDADIVIQFGVAEHGDGYPFDGKDGLLAHAFPPGPGIQGDAHFDDDELWSLGKGVVVPTRFGNADGAACHFPFIFEGRSYSACTTDGRSDGLPWCSTTANYDTDDRFGFCPSERLYTQDGNADGKPCQFPFIFQGQSYSACTTDGRSDGYRWCATTANYDRDKLFGFCPTRADSTVMGGNSAGELCVFPFTFLGKEYSTCTSEGRGDGRLWCATTSNFDSDKKWGFCPDQGYSLFLVAAHEFGHALGLDHSSVPEALMYPMYRFTEGPPLHKDDVNGIRHLYGPRPEPEPRPPTTTTPQPTAPPTVCPTGPPTVHPSERPTAGPTGPPSAGPTGPPTAGPSTATTVPLSPVDDACNVNIFDAIAEIGNQLYLFKDGKYWRFSEGRGSRPQGPFLIADKWPALPRKLDSVFEERLSKKLFFFSGRQVWVYTGASVLGPRRLDKLGLGADVAQVTGALRSGRGKMLLFSGRRLWRFDVKAQMVDPRSASEVDRMFPGVPLDTHDVFQYREKAYFCQDRFYWRVSSRSELNQVDQVGYVTYDILQCPED
B2 showed a cleaved (%) after MMP-9 treatment (SDS-PAGE) (A1AT-M351V/L353A/M358V) of 6%, a non-cleaved (%) after MMP-9 treatment (SDS-PAGE) (A1AT-M351V/L353A/M358V) of 94% and a cleaved (%) after MMP-9 treatment (SDS-PAGE) (A1AT-M351V/L353S/M358V) of 0%. It also gave a non-cleaved (%) after MMP-9 treatment (SDS-PAGE) (A1AT-M351V/L353S/M358V) of 100%, a cleaved (%) after MMP-9 treatment (SDS-PAGE) (A1AT-M351V/L353T/M358V) of 0% and a non-cleaved (%) after MMP-9 treatment (SDS-PAGE) (A1AT-M351V/L353T/M358V) of 100%. For the same protein, the cleaved (%) after MMP-9 treatment (SDS-PAGE) (A1AT-M351V/M358V) was 25%, the non-cleaved (%) after MMP-9 treatment (SDS-PAGE) (A1AT-M351V/M358V) was 75% and the cleaved (%) after MMP-9 treatment (SDS-PAGE) [1] was 89%. For the same protein, the non-cleaved (%) after MMP-9 treatment (SDS-PAGE) [1] was 11%.
